± gives the uncertainty stated by the source.
Test: self-splicing fitness, log relative to wild type (ln ratio); higher = more splicing; Tetrahymena group I intron in knt gene, E. coli kanamycin selection, DiMSum; sequences stand for … in CUCUCU…GGAGGGAAAAGUUAUCAGGCAUGCACCUGGUAGCUAGUCUUUAAACCAAUAGAUUGCAUCGGUUUAAAAGGCAAGACCGUCAAAUUGCGGGAAAGGGGUCAACAGCCGUUCAGUACCAAGUCUCAGGGGAAACUUUGAGAUGGCCUUGCAAAGGGUAUGGUAAUAAGCUGACGGACAUGGUCCUAACCACGCAGCCAAGUCCUAAGUCAACAGAUCUUCUGUUGAUAUGGAUGCAGUUCACAGACUAAAUGUCGGUCGGGGAAGAUGUAUUCUUCUCAUAAGAUAUAGUCGGACCUCUCCUUAAUGGGAGCUAGCGGAUGAAGUGAUGCAACACUGGAGCCGCUGGGAACUAAUUUGUAUGCGAAAGUAUAUUGAUUAGUUUUGGAGUACUCGUGGUCG
Outline: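 The eight P1ex-region nucleotides of an intron in the knt kanamycin-resistance gene on pET-22b(+) were all randomised and the library put into E. coli BL21(DE3). Six replicate transformations were grown overnight at 37°C or 30°C on LB agar with or without 25 μg/mL kanamycin, together with 100 μg/mL carbenicillin, 50 μM IPTG and 0.2% rhamnose. Colonies were pooled and amplicon-sequenced on an Illumina HiSeq 2500. Fitness from DiMSum is the error-weighted combination of wild-type-normalised replicate fold changes, kanamycin over none.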

Sequence	self-splicing fitness (ln) (30 °C)	self-splicing fitness (ln) (37 °C)
UCUCAGCAAUAUUACGUCAC	-3.75 ± 0.19	-2.55 ± 0.17
GAAAAGCAAUAUUACGUCAA	-2.62 ± 0.19	-1.11 ± 0.14
CUUAAGCAAUAUUACGUUAC	-2.2 ± 0.19	-2.67 ± 0.34
ACGAAGCAAUAUUACGUGUA	-2.15 ± 0.058	-1.24 ± 0.058
UGAGAGCAAUAUUACGCGUA	-2.26 ± 0.26	-2.4 ± 0.31
AGACAGCAAUAUUACGUCGC	-2.96 ± 0.2	-1.98 ± 0.19
GACAAGCAAUAUUACGUAGG	-3.07 ± 0.11	-2.22 ± 0.13
CGGUAGCAAUAUUACGCAGA	-1.8 ± 0.29	-1.91 ± 0.2
ACGUAGCAAUAUUACGUCCU	-1.99 ± 0.13	-0.452 ± 0.13
AAACAGCAAUAUUACGCCUC	-2.55 ± 0.15	-1.49 ± 0.15
UGAUAGCAAUAUUACGGAUG	-1.33 ± 0.1	-0.978 ± 0.12
CUCCAGCAAUAUUACGAGAG	-4.68 ± 0.31	-1.32 ± 0.13
CUUGAGCAAUAUUACGGGGC	-3.82 ± 0.2	-0.729 ± 0.17
GGUUAGCAAUAUUACGACCA	-1.69 ± 0.32	-0.631 ± 0.3
CGGUAGCAAUAUUACGCAUC	–	-2.58 ± 0.21
AGCAAGCAAUAUUACGAUUG	-4.19 ± 0.17	-1.91 ± 0.11
UCGUAGCAAUAUUACGCUGA	-2.45 ± 0.28	-1.35 ± 0.15
UUACAGCAAUAUUACGUAGA	-1.01 ± 0.067	-0.372 ± 0.081
AGCAAGCAAUAUUACGCGGU	-3.33 ± 0.16	-1.66 ± 0.17
CGAUAGCAAUAUUACGCAGA	-3.24 ± 0.21	-1.75 ± 0.13
CUGAAGCAAUAUUACGUUAU	-4.59 ± 0.23	-3.63 ± 0.37
CCACAGCAAUAUUACGGAGU	-3.32 ± 0.16	-1.32 ± 0.14
GAACAGCAAUAUUACGAUCC	-2.18 ± 0.17	-0.784 ± 0.24
CUAUAGCAAUAUUACGGUCA	-1.82 ± 0.19	-1.7 ± 0.24
GGUGAGCAAUAUUACGCGUG	-1.22 ± 0.16	-1.52 ± 0.21

Sequence	self-splicing fitness (ln) (30 °C)	self-splicing fitness (ln) (37 °C)
GUGUAGCAAUAUUACGUCUA	-1.13 ± 0.24	0.254 ± 0.23
UGUAAGCAAUAUUACGCACG	-0.966 ± 0.092	-0.234 ± 0.11
GUGUAGCAAUAUUACGUAAC	-1.66 ± 0.14	-0.0998 ± 0.14
GUUAAGCAAUAUUACGCACG	-0.281 ± 0.18	-0.714 ± 0.18
UGGGAGCAAUAUUACGAACG	-1.07 ± 0.1	-0.54 ± 0.16
GAAAAGCAAUAUUACGCAAA	-0.0354 ± 0.26	-1.79 ± 0.32
UUCGAGCAAUAUUACGUGAC	-3.65 ± 0.24	-3.28 ± 0.27
CAAUAGCAAUAUUACGACCA	–	-1.81 ± 0.41
ACGCAGCAAUAUUACGAUUU	-1.01 ± 0.081	-0.413 ± 0.1
CGGCAGCAAUAUUACGACAC	-3.52 ± 0.24	-2.65 ± 0.21
AUCCAGCAAUAUUACGAAGU	-1.21 ± 0.079	-1.2 ± 0.094
UCGUAGCAAUAUUACGUCGG	-1.49 ± 0.15	-0.337 ± 0.17
CCGUAGCAAUAUUACGAGUU	-3.11 ± 0.15	-3.07 ± 0.18
ACACAGCAAUAUUACGUAAC	-3.39 ± 0.12	-1.81 ± 0.14
CGGGAGCAAUAUUACGUGAA	–	-2.15 ± 0.3
UAAUAGCAAUAUUACGAAAA	-2.83 ± 0.26	-1.59 ± 0.15
GUUCAGCAAUAUUACGUAAA	0.0969 ± 0.077	0.494 ± 0.11
GUUAAGCAAUAUUACGAGAG	-3.24 ± 0.2	-2.26 ± 0.2
GUUUAGCAAUAUUACGUCUU	-0.801 ± 0.11	-0.25 ± 0.11
AGGAAGCAAUAUUACGGUUG	-3.3 ± 0.17	-2.23 ± 0.16
CAUAAGCAAUAUUACGGAAC	–	-2.26 ± 0.22
CUGCAGCAAUAUUACGGGCC	–	-1.2 ± 0.5
AAACAGCAAUAUUACGGGAU	-2.65 ± 0.1	-1.69 ± 0.087
UAUCAGCAAUAUUACGCCUU	-0.446 ± 0.24	-0.723 ± 0.23
